Results on six molecules are retold here after article PMC7804152, “Structural basis for the multi-activity factor Rad5 in replication stress tolerance”.

In one data set the target is T1, His-KlRad5 (Kluyveromyces lactis, UniProt Q6CJM4 163-1114).
T1 sequence: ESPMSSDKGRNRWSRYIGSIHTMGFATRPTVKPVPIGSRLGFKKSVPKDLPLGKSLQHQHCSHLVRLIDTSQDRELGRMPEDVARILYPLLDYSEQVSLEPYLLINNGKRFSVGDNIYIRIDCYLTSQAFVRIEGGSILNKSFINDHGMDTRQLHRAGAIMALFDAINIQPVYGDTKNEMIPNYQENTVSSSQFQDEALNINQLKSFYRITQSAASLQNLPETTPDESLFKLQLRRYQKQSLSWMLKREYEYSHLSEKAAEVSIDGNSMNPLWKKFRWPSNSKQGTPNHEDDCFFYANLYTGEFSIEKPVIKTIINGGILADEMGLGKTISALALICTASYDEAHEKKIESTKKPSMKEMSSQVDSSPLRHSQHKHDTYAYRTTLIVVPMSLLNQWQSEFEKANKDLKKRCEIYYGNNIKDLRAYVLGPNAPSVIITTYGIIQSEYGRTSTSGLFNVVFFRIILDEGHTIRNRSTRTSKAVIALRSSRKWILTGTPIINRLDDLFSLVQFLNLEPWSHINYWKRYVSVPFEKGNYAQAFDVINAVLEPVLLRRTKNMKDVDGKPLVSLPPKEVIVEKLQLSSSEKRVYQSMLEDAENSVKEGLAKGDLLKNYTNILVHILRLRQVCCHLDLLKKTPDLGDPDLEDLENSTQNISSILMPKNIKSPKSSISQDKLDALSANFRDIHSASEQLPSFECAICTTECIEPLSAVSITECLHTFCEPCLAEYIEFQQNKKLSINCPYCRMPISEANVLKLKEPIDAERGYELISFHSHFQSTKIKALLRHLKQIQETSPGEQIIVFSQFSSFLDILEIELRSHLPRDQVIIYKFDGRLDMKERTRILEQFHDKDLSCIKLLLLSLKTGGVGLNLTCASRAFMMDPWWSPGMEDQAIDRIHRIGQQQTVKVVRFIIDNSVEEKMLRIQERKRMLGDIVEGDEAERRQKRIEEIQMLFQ
As to the kind of experiment: fluorescence polarization; FP: 20 mM Tris pH 7.5, 50 mM (dsDNA, KlHIRAN) or 70 mM (ssDNA) NaCl, 2 mM MgCl2, 1 nM DNA, room temp; EMSA: 20 mM Tris pH 7.5, 100 mM KCl, 0.5 mM DTT, 3% glycerol, 2 mM MgCl2, 250 ug/mL BSA, 4 C; pull-down: 20 mM Tris pH 7.5, 50 mM NaCl, 4 C. The conditions noted are these: protein: recombinant; tags: N-terminal His6; label: 5'-FAM; blunt.

Data set [1] concerns the target T2, KlRad5 (Kluyveromyces lactis, UniProt Q6CJM4 163-1114).
T2 sequence: T1 sequence
As to the kind of experiment: fluorescence polarization; 50 mM NaCl; high affinity, Kd only in figure; FP: 20 mM Tris pH 7.5, 50 mM (dsDNA, KlHIRAN) or 70 mM (ssDNA) NaCl, 2 mM MgCl2, 1 nM DNA, room temp; EMSA: 20 mM Tris pH 7.5, 100 mM KCl, 0.5 mM DTT, 3% glycerol, 2 mM MgCl2, 250 ug/mL BSA, 4 C; pull-down: 20 mM Tris pH 7.5, 50 mM NaCl, 4 C. The settings on record: protein: recombinant; tags: none; label: 5'-FAM; blunt.

For the next data set, the target named is T3, KlHIRAN (Kluyveromyces lactis, UniProt Q6CJM4 174-341).
T3 sequence: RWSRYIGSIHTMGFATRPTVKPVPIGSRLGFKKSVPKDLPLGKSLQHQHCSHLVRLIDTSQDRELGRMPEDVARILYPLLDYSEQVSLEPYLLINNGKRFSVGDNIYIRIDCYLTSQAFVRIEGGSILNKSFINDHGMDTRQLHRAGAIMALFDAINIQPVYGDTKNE
Put plainly: fluorescence polarization; 50 mM NaCl; stronger than blunt dsDNA; FP: 20 mM Tris pH 7.5, 50 mM (dsDNA, KlHIRAN) or 70 mM (ssDNA) NaCl, 2 mM MgCl2, 1 nM DNA, room temp; EMSA: 20 mM Tris pH 7.5, 100 mM KCl, 0.5 mM DTT, 3% glycerol, 2 mM MgCl2, 250 ug/mL BSA, 4 C; pull-down: 20 mM Tris pH 7.5, 50 mM NaCl, 4 C. The settings on record: protein: recombinant, tags: intein-CBD cleaved off.

The target in data set [2] is T2, KlRad5. Put plainly: pull-down; 50 mM NaCl; FP: 20 mM Tris pH 7.5, 50 mM (dsDNA, KlHIRAN) or 70 mM (ssDNA) NaCl, 2 mM MgCl2, 1 nM DNA, room temp; EMSA: 20 mM Tris pH 7.5, 100 mM KCl, 0.5 mM DTT, 3% glycerol, 2 mM MgCl2, 250 ug/mL BSA, 4 C; pull-down: 20 mM Tris pH 7.5, 50 mM NaCl, 4 C. The conditions noted are these: protein: recombinant; tags: none; label: 5'-biotin; blunt, self-annealing, 2 copies of D1. A general note: A gel shift assay detects complexes by their altered migration in electrophoresis.

In data set [3] the target is T2, KlRad5. Put plainly: hydrogen-deuterium exchange MS; 200 mM NaCl; protection of 548-554, 684-700, 1039-1049, 1081-1092; FP: 20 mM Tris pH 7.5, 50 mM (dsDNA, KlHIRAN) or 70 mM (ssDNA) NaCl, 2 mM MgCl2, 1 nM DNA, room temp; EMSA: 20 mM Tris pH 7.5, 100 mM KCl, 0.5 mM DTT, 3% glycerol, 2 mM MgCl2, 250 ug/mL BSA, 4 C; pull-down: 20 mM Tris pH 7.5, 50 mM NaCl, 4 C. The conditions noted are these: protein: recombinant; tags: none; blunt, self-annealing, 2 copies of D1.

B1: D2a/D2b dsDNA (dsDNA)
DNA 1: ACCAGTGCCAGTGAT
DNA 2: ATCACTGGCACTGGT
Consider B1, for which the binding result with His-KlRad5 and with KlRad5 [1] was “binds” in each case.

As to CAACGTCATAGACGATTACATTGCTACATGGAGCTGTCTAGAGGATCCGA (ssDNA) [D3a ssDNA], the binding result with KlHIRAN (label: 5'-FAM) was “binds”.

B2: D3a/D3c 5'-overhang dsDNA (dsDNA)
DNA 1: CAACGTCATAGACGATTACATTGCTACATGGAGCTGTCTAGAGGATCCGA
DNA 2: TCGGATCCTCTAGACAGCTCCATGT
As to B2, the binding result with KlHIRAN (label: 5'-FAM on D3a, 5' overhang 25 nt (D3a)) is reported as “binds”.

B3: D3a/D3d 3'-overhang dsDNA (dsDNA)
DNA 1: B2 DNA 1
DNA 2: AGCAATGTAATCGTCTATGACGTTG
With B3, the binding result with KlHIRAN (label: 3'-FAM on D3a, 3' overhang 25 nt (D3a)) is on record as “binds”.

B4: D1 dsDNA, 5'-biotin (dsDNA)
DNA 1: TCGGATCCTCTAGACAGCTCCATGCATGGAGCTGTCTAGAGGATCCGA
DNA 2: B4 DNA 1
Take B4: in the data set with KlRad5 [2], the binding result was “binds”.

B5: D1 dsDNA, unlabelled (dsDNA)
DNA 1: B4 DNA 1
DNA 2: B4 DNA 1
Take B5: the binding result in the data set with KlRad5 [3] is recorded as “binds”.
